# Measurements: the Immune Epitope Database (IEDB)
# Experiments:
# Assay in all cases: IEDB peptide-MHC binding, purified MHC/competitive/radioactivity; ≥ and ≤ were set here for values at or beyond the usual limits of such assays
# Conditions in all cases: source organism: Bordetella pertussis
# HLA-B*07:02 = target: HLA-B*07:02
# HLA-B*35:01 = target: HLA-B*35:01
# HLA-B*44:03 = target: HLA-B*44:03
# HLA-A*02:01 = target: HLA-A*02:01
# HLA-B*57:01 = target: HLA-B*57:01
# HLA-B*53:01 = target: HLA-B*53:01
sequence,measurement,setting,value
AAAEVAGAL,IC50,HLA-B*07:02,6.11 µM
same,IC50,HLA-B*35:01,69.9 µM
same,IC50,HLA-B*44:03,49.4 µM
AGKSLKKKN,IC50,HLA-A*02:01,≥ 78.1 µM
APPGAGFIY,IC50,HLA-B*35:01,16.5 µM
ECSGKQDCP,IC50,HLA-B*07:02,69.6 µM
EHRMQEAVE,IC50,HLA-A*02:01,≥ 78.1 µM
ESAEGRKIF,IC50,HLA-B*44:03,36.7 µM
same,IC50,HLA-B*57:01,≥ 70.4 µM
FETYALTGI,IC50,HLA-B*44:03,35.8 µM
IPFQRALRL,IC50,HLA-B*53:01,2.3 µM
IVIPPKALF,IC50,HLA-B*57:01,45.6 µM
MEYFKTPLP,IC50,HLA-B*44:03,28.1 µM
VAAAADLAL,IC50,HLA-B*53:01,21.7 µM
VPFCFGKDL,IC50,HLA-B*07:02,12.1 µM
VTMRYLASY,IC50,HLA-B*35:01,35.4 µM
same,IC50,HLA-B*57:01,0.0142 µM
YDTGDLIAY,IC50,HLA-B*35:01,69.9 µM
